T1: ΔNT17 Q72L Arl1 in the Arl1–Gea2 complex (Saccharomyces cerevisiae, UniProt P38116, Q72L)
T1 construct: Arl1 lacking N-terminal 17 residues, Q72L, C-terminal 6xHis; full-length Gea2 (1459 residues, dimer), N-terminal 6xHis; both from E. coli NiCo21(DE3); two Arl1 on one Gea2 dimer; with ARF guanine-nucleotide exchange factor 2
T1 sequence (P38116 18-183 Q72L): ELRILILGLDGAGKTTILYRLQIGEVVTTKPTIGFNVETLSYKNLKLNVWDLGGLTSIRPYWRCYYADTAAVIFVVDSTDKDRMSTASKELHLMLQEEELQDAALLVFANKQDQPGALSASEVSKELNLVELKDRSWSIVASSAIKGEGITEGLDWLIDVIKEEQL
T1 sequence (P39993 1-1459 partner): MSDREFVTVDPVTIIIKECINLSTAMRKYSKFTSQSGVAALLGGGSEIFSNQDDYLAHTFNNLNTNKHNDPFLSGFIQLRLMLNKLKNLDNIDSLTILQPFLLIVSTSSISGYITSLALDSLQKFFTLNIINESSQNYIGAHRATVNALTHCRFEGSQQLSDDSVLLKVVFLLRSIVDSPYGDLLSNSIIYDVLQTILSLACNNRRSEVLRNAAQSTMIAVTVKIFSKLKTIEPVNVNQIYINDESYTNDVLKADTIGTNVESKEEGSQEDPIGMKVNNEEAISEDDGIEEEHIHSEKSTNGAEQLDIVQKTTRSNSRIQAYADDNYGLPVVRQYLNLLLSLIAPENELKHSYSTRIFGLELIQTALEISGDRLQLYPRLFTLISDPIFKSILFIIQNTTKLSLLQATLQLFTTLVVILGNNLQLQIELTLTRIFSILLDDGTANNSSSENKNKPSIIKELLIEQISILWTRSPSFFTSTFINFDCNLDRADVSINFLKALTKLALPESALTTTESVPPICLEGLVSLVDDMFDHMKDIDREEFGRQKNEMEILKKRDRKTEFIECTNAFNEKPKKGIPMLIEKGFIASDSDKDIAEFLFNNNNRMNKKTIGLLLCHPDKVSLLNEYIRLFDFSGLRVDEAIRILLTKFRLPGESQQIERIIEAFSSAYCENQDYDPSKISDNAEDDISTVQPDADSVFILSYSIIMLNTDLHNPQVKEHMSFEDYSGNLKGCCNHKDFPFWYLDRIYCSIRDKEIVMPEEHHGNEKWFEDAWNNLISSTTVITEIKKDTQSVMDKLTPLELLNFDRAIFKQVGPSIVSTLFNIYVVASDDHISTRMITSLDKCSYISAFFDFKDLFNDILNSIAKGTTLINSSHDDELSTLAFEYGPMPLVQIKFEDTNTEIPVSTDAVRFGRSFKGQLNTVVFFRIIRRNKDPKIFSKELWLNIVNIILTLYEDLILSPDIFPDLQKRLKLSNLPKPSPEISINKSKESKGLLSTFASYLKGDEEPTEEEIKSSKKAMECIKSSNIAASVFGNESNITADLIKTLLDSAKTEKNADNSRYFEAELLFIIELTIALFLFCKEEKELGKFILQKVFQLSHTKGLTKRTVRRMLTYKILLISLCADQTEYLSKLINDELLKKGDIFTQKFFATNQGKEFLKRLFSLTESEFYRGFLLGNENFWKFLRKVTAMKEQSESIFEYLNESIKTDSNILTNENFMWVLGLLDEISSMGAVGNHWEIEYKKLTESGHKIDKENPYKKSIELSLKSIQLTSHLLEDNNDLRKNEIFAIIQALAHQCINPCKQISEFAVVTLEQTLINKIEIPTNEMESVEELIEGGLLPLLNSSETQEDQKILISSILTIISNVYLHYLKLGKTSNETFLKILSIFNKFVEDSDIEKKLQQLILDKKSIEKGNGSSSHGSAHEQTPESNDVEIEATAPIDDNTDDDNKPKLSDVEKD

B1: N-terminal 17-residue truncated Q72L Arl1 with a C-terminal 6xHis-tag (natural protein, S. cerevisiae, UniProt P38116 18-183, looked up)
chain: T1 sequence (P38116 18-183 Q72L)
notes: Arl1, S. cerevisiae, the N-terminal 17 residues (amphipathic helix) removed, Q72L keeps it GTP-restricted; vector pMCSG28; mixed with Gea2 in buffer with 1 mM GTP; also called ΔNT17 Q72L Arl1; Arl1-GTP
B2: S. cerevisiae full-length Gea2 with an N-terminal 6xHis-tag (natural protein, UniProt P39993 1-1459, looked up)
chain: T1 sequence (P39993 1-1459 partner)
notes: Gea2, S. cerevisiae, Arf guanine nucleotide exchange factor, 1459 residues, amplified from genomic DNA of BY4741, vector pMCSG21; Homodimer by mass photometry and cryo-EM; also called Gea2 dimer

Key:
[1] = biological target: T1, ΔNT17 Q72L Arl1 in the Arl1–Gea2 complex; assay: cryo-EM structure ([…] Å); assay type: binding; settings: 1 mM GTP, 1 mM MgCl2, 1 mM TCEP, HEPES pH 7.4, 4 °C; Arl1 nucleotide site; Gea2 bound
[2] = biological target: B2; assay: SEC; 0.74 μM Gea2 (monomer) with 10-fold molar excess of ΔNT17 Q72L Arl1, 20 mM HEPES pH 7.4, 150 mM NaCl, 1 mM MgCl2, 1 mM TCEP, 1 mM GTP, 4 °C overnight; Superose 6 Increase 10/300 GL; peak fractions on SDS-PAGE; settings: both partners purified
[3] = biological target: the molecule itself; assay: mass photometry; 44.2 nM Gea2, Refeyn TwoMP, calibrated with β-amylase and thyroglobulin

## Nc1nc2c(ncn2[C@@H]2O[C@H](COP(=O)(O)OP(=O)(O)OP(=O)(O)O)[C@@H](O)[C@H]2O)c(=O)[nH]1 [GTP]
[1]
  cryo-EM structure (3.3 Å): far away from the γ-phosphate of the bound GTP in our structure

## B1
[2]
  binding result: binds

## B2
[3]
  stoichiometry N: 2

Reference: article PMC10908827, “Structural insight into an Arl1–ArfGEF complex involved in Golgi recruitment of a GRIP-domain golgin” (Nature Communications, 2024)
